Measurements published in article doi:10.1101/431791.

Biological target: AUR1-mRFP (A. thaliana) (UniProt Q9M077)
Assay: FRET or BRET

UniProt Q9M077, sequence (Q9M077 whole entry): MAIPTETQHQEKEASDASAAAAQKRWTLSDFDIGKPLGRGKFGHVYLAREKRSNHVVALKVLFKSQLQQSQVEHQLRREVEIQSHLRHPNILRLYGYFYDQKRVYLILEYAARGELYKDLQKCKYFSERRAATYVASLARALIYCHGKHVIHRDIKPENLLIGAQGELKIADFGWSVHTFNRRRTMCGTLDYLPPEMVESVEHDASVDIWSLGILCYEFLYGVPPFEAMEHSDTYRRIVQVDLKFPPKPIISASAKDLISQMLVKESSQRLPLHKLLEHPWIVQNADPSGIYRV

donor (GFP) fluorescence lifetime with AUR1-RFP | Substance
1.9 ns | TPXL2-GFP (natural protein)
1.9 ns | TPXL3-GFP (natural protein)
